Laboratory results reported in article PMC4203850, “Conformational Antibody Binding to a Native, Cell-Free Expressed GPCR in Block Copolymer Membranes” (PLoS ONE, 2014).

Target: T1, radiolabeled (I-125) SDF-1α (stromal cell-derived factor-1 alpha) (UniProt P48061-2 22-89, 125I radiolabel (position not given))
T1 construct: SDF-1α (stromal cell-derived factor-1 alpha), the natural ligand of CXCR4; the alpha isoform
Assay: radioligand binding; saturation assay: constant CXCR4-ACM concentration, varying 125I-SDF, with and without 0.5 µM unlabeled SDF; 96-well plate, filtration; GraphPad Prism
Conditions: both partners purified

T1 sequence (P48061 22-89): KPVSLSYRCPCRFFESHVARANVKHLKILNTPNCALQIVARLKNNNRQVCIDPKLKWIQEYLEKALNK

B1: CXCR4 embedded in polymersome membranes (CXCR4-ACMs) (receptor, UniProt P61073 1-352, looked up)
chain: MEGISIYTSDNYTEEMGSGDYDSMKEPCFREENANFNKIFLPTIYSIIFLTGIVGNGLVILVMGYQKKLRSMTDKYRLHLSVADLLFVITLPFWAVDAVANWYFGNFLCKAVHVIYTVNLYSSVLILAFISLDRYLAIVHATNSQRPRKLLAEKVVYVGVWIPALLLTIPDFIFANVSEADDRYICDRFYPNDLWVVVFQFQHIMVGLILPGIVILSCYCIIISKLSHSKGHQKRKALKTTVILILAFFACWLPYYIGISIDSFILLEIIKQGCEFENTVHKWISITEALAFFHCCLNPILYAFLGAKFKTSAQHALTSVSRGSSLKILSKGKRGGHSSVSTESESSSFHSS
notes: Receptor sits in polybutadiene-b-poly(ethylene oxide) polymersome membrane with 1% DSPE-PEG-biotin; The introduction speaks in general of 'native, full-length membrane proteins' for this approach; also called C4-ACMs; native CXCR4
Kd: 8.4 nM
